The target of assay [1] is large-conductance calcium-activated potassium (BKCa) channel alpha subunit (rat (endogenous in mesenteric arteries)) (UniProt Q62976).
The target is the same in assay [2]. This is another data set of the same source.

This note sets out measurements from article PMC10341547.

Chain of inositol 1,4,5-trisphosphate receptor 1, P29994 1-2750 (natural protein) (P29994 whole entry): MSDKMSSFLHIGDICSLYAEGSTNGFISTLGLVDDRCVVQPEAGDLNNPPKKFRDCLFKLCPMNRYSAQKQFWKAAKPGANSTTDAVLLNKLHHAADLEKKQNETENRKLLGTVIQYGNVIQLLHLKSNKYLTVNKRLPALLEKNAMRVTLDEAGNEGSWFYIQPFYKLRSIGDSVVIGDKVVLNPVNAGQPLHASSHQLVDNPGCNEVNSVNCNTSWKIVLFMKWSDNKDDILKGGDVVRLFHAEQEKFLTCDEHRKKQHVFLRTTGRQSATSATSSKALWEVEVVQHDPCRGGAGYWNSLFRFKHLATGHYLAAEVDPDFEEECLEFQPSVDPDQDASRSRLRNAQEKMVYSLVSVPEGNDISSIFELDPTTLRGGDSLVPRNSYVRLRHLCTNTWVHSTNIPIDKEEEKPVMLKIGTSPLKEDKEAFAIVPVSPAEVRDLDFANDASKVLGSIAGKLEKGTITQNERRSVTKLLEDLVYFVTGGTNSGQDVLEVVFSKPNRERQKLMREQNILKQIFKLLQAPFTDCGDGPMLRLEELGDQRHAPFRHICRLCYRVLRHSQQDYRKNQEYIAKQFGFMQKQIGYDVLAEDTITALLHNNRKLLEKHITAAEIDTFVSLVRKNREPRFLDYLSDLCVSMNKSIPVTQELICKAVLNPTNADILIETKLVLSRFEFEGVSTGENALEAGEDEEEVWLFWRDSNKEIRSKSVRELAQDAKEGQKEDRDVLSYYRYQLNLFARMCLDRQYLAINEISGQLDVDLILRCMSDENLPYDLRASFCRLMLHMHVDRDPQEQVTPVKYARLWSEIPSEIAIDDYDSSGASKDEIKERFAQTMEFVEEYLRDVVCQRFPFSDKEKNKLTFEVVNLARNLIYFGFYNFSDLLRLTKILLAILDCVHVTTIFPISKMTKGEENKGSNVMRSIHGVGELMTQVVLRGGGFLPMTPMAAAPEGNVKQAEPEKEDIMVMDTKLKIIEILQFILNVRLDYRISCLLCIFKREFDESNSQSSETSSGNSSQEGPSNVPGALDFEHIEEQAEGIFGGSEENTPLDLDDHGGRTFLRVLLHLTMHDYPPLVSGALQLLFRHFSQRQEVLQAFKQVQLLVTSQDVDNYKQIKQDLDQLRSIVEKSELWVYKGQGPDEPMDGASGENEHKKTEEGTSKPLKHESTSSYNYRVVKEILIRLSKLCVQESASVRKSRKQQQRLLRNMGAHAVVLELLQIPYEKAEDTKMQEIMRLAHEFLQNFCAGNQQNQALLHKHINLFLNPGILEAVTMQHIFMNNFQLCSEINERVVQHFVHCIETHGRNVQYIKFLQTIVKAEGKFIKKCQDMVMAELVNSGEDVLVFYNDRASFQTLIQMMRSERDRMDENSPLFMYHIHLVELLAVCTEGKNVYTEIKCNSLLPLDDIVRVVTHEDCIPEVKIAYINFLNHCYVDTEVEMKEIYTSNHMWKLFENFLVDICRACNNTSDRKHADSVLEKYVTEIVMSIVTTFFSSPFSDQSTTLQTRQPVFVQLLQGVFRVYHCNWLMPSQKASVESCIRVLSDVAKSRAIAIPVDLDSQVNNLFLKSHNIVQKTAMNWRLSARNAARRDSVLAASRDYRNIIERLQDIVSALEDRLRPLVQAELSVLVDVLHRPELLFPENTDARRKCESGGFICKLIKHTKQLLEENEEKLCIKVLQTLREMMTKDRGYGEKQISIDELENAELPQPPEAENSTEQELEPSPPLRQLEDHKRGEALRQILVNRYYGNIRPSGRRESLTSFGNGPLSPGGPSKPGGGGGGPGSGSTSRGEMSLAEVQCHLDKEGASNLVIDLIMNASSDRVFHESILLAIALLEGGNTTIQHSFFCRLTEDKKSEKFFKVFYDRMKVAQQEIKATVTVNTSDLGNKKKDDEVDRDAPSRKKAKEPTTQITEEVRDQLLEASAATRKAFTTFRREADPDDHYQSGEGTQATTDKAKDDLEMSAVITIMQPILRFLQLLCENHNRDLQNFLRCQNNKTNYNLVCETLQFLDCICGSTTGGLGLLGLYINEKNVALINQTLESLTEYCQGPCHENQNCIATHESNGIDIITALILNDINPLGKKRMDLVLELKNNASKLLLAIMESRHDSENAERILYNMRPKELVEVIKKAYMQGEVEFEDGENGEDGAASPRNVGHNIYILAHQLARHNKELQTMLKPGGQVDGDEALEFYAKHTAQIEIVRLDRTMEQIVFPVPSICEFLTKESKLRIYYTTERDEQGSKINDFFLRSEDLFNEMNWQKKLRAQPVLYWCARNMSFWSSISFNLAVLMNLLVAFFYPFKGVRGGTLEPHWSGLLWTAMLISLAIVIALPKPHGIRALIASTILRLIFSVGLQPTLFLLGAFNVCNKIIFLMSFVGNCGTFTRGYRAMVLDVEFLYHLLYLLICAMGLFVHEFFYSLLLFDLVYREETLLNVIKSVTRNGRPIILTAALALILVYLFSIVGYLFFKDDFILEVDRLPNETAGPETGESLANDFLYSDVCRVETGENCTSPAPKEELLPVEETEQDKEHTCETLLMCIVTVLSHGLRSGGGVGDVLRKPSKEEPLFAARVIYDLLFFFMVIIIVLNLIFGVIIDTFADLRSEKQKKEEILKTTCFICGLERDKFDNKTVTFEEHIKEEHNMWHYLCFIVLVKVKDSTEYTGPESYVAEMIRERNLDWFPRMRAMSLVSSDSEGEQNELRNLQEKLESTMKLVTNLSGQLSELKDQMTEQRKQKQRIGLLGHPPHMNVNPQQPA
Chain of large-conductance calcium-activated potassium (BKCa) channel alpha subunit (rat (endogenous in mesenteric arteries)) (Q62976 whole entry): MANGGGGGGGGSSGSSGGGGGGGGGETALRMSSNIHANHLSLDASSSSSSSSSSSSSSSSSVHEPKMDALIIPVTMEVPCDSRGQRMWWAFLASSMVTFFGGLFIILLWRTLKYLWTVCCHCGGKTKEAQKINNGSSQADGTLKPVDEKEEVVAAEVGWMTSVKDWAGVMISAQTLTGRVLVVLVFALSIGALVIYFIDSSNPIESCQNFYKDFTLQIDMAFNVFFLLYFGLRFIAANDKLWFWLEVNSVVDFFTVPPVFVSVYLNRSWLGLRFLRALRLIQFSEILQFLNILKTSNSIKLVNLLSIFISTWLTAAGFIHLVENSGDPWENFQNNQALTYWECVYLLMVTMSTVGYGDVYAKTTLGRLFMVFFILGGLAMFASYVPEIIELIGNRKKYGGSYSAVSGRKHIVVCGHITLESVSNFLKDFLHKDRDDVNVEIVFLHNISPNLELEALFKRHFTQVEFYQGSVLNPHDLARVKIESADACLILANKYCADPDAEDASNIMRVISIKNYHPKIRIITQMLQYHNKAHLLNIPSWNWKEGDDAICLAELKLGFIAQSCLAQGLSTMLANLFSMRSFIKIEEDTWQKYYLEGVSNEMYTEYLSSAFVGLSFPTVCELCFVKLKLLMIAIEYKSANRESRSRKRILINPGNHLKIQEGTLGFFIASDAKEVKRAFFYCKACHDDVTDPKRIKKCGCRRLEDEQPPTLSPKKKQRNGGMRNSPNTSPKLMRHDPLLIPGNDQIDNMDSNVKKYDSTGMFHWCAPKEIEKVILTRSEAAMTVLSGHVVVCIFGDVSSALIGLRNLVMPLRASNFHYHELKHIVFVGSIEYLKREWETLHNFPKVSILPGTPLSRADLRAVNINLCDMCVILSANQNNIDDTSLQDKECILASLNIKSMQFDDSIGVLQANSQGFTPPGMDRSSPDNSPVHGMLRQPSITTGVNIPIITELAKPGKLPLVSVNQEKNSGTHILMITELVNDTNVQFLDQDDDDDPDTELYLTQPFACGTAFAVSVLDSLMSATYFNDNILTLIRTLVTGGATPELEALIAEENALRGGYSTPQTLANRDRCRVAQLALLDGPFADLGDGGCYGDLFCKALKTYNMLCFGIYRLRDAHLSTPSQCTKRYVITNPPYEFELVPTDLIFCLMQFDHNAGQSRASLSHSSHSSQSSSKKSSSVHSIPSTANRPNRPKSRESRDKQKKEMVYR

“inositol 1,4,5-trisphosphate receptor 1, P29994 1-2750 (natural protein)”: the whole-cell BKCa current density at +60 mV in mesenteric VSMCs of WKY rats before and after the IP3R agonist Adenophostin A in assay [1] is 142 pA/pF. Also, in assay [2], the whole-cell BKCa current density at +60 mV in mesenteric VSMCs of SHR before and after the IP3R agonist Adenophostin A was 65.6 pA/pF.
